Experimental findings from publication PMC7170535, “Inter-α-inhibitor heavy chain-1 has an integrin-like 3D structure mediating immune regulatory activities and matrix stabilization during ovulation” (The Journal of Biological Chemistry, 2020) are described below.

T1: recombinant inter-α-inhibitor heavy chain 1 (rHC1), D298A MIDAS mutant (human, UniProt P19827 35-672, D298A)
T1 construct: source: expressed and purified as described previously (58)
T1 sequence (looked up): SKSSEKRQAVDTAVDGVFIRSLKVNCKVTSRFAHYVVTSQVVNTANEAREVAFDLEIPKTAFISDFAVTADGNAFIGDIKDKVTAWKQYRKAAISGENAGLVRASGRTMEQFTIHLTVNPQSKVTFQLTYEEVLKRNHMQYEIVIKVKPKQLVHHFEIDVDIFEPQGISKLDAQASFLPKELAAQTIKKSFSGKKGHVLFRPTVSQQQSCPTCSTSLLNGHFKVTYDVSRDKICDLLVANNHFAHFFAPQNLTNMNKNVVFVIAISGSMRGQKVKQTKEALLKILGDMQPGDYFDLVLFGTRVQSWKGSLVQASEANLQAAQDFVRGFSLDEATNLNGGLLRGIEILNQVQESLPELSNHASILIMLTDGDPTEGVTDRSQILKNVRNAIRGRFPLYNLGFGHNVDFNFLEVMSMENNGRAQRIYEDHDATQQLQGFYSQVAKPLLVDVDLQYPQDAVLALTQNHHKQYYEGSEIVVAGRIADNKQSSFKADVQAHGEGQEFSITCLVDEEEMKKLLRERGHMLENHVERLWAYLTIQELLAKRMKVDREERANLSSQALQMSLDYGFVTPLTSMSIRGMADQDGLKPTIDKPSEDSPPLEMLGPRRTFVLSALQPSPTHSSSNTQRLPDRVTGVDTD

B1: recombinant inter-α-inhibitor heavy chain 1 (rHC1), ΔvWFA mutant lacking residues 288-478 (natural protein, human, UniProt P19827 35-672, looked up)
chain: SKSSEKRQAVDTAVDGVFIRSLKVNCKVTSRFAHYVVTSQVVNTANEAREVAFDLEIPKTAFISDFAVTADGNAFIGDIKDKVTAWKQYRKAAISGENAGLVRASGRTMEQFTIHLTVNPQSKVTFQLTYEEVLKRNHMQYEIVIKVKPKQLVHHFEIDVDIFEPQGISKLDAQASFLPKELAAQTIKKSFSGKKGHVLFRPTVSQQQSCPTCSTSLLNGHFKVTYDVSRDKICDLLVANNHFAHFFAPQNLTLLVDVDLQYPQDAVLALTQNHHKQYYEGSEIVVAGRIADNKQSSFKADVQAHGEGQEFSITCLVDEEEMKKLLRERGHMLENHVERLWAYLTIQELLAKRMKVDREERANLSSQALQMSLDYGFVTPLTSMSIRGMADQDGLKPTIDKPSEDSPPLEMLGPRRTFVLSALQPSPTHSSSNTQRLPDRVTGVDTD
notes: source: expressed and purified as described previously (58)
B2: fibronectin type III repeats 13 and 14 (cFN13–14) (domain or fragment, human, UniProt P02751-1 1812-1991, looked up)
chain: ENVSPPRRARVTDATETTITISWRTKTETITGFQVDAVPANGQTPIQRTIKPDVRSYTITGLQPGTDYKIYLYTLNDNARSSPVVIDASTAIDAPSNLRFLATTPNSLLVSWQPPRARITGYIIKYEKPGSPPREVVPRPRPGVTEATITGLEPGTEYTIYVIALKNNQKSEPLIGRKKT
notes: Fibronectin, human, amino acid residues 1812-1991 (type III repeats 13 and 14); Mass spectrometry matched the construct with the N-terminal methionine removed; the monomeric protein was separated from dimeric cFN13–14 on heparin; source: E. coli BL21(DE3) pLysS, purified (nickel Sepharose, HisTrap HP, HiTrap heparin HP; monomeric form)
B3: vitronectin (natural protein, UniProt P04004 20-478, looked up)
chain: DQESCKGRCTEGFNVDKKCQCDELCSYYQSCCTDYTAECKPQVTRGDVFTMPEDEYTVYDDGEEKNNATVHEQVGGPSLTSDLQAQSKGNPEQTPVLKPEEEAPAPEVGASKPEGIDSRPETLHPGRPQPPAEEELCSGKPFDAFTDLKNGSLFAFRGQYCYELDEKAVRPGYPKLIRDVWGIEGPIDAAFTRINCQGKTYLFKGSQYWRFEDGVLDPDYPRNISDGFDGIPDNVDAALALPAHSYSGRERVYFFKGKQYWEYQFQHQPSQEECEGSSLSAVFEHFAMMQRDSWEDIFELLFWGRTSAGTRQPQFISRDWHGVPGQVDAAMAGRIYISGMAPRPSLAKKQRFRHRNRKGYRSQRGHSRGRNQNSRRPSRATWLSLFSSEESNLGANNYDDYRMDWLVPATCEPIQSVFFFSGDKYYRVNLRTRRVDTVDPPYPRSIAQYWLGCPAPGHL
notes: Vitronectin; source: bought: PeproTech
B4: recombinant inter-α-inhibitor heavy chain 1 (rHC1), wild type (natural protein, human, UniProt P19827 35-672, looked up)
chain: T1 sequence (looked up) with A264D
notes: Monomer in EDTA, monomer-dimer equilibrium in Mg2+ or Mn2+; also called rHC1 (WT); WT rHC1; source: expressed and purified as described previously (58)
B5: TGFβ2-LAP, small latent complex of TGFβ2 (complex)
chain 1: LSTCSTLDMDQFMRKRIEAIRGQILSKLKLTSPPEDYPEPEEVPPEVISIYNSTRDLLQEKASRRAAACERERSDEEYYAKEVYKIDMPPFFPSENAIPPTFYRPYFRIVRFDVSAMEKNASNLVKAEFRVFRLQNPKARVPEQRIELYQILKSKDLTSPTQRYIDSKVVKTRAEGEWLSFDVTDAVHEWLHHKDRNLGFKISLHCPCCTFVPSNNYIIPNKSEELEARFAGIDGTSTYTSGDQKTIKSTRKKNSGKTPHLLLMLLPSYRLESQQTNRRKKR
chain 2: ALDAAYCFRNVQDNCCLRPLYIDFKRDLGWKWIHEPKGYNANFCAGACPYLWSSDTQHSRVLSLYNTINPEASASPCCVSQDLEPLTILYYIGKTPKIEQLSNMIVKSCKCS
B6: TGFβ3-LAP, small latent complex of TGFβ3 (complex)
chain 1: LSTCTTLDFGHIKKKRVEAIRGQILSKLRLTSPPEPTVMTHVPYQVLALYNSTRELLEEMHGEREEGCTQENTESEYYAKEIHKFDMIQGLAEHNELAVCPKGITSKVFRFNVSSVEKNRTNLFRAEFRVLRVPNPSSKRNEQRIELFQILRPDEHIAKQRYIGGKNLPTRGTAEWLSFDVTDTVREWLLRRESNLGLEISIHCPCHTFQPNGDILENIHEVMEIKFKGVDNEDDHGRGDLGRLKKQKDHHNPHLILMMIPPHRLDNPGQGGQRKKR
chain 2: ALDTNYCFRNLEENCCVRPLYIDFRQDLGWKWVHEPKGYYANFCSGPCPYLRSADTTHSTVLGLYNTLNPEASASPCCVPQDLEPLTILYYVGRTPKVEQLSNMVVKSCKCS

The data set “vitronectin” deals with B3. Description: SPR; 1,500 RU rHC1 proteins immobilised on a C1 chip by amide cross-linking; ligand as analyte; HEPES-buffered saline pH 7.5, 0.05% Tween 20, 10 mM EDTA; 50 μl/min; multicycle kinetics, 1:1 Langmuir. Conditions: both partners purified. A general note: In SPR one partner is held on a chip, and binding of the other changes the refractive index at the surface.

In data set [1] the target is T1, recombinant inter-α-inhibitor heavy …. Description: SPR; 1,000 RU rHC1 proteins immobilised on a C1 chip; cFN13–14 at 7.5-120 nM as analyte; HEPES-buffered saline pH 7.4, 0.05% Tween 20, no added metal ions or EDTA; 30 μl/min; single cycle kinetics, 1:1 Langmuir. Conditions: both partners purified.
In data set [2] the target is B1. The data set is described as above. Conditions: both partners purified.
The target in data set [3] is B4. Described as above. Particulars: both partners purified.
Data set [4] concerns the target T1, recombinant inter-α-inhibitor heavy …. Put plainly: SPR; 1,500 RU rHC1 proteins immobilised on a C1 chip by amide cross-linking; ligand as analyte; HEPES-buffered saline pH 7.5, 0.05% Tween 20, 10 mM EDTA; 50 μl/min; multicycle kinetics, 1:1 Langmuir. Particulars: both partners purified.
Data set [5] addresses B4. Described as above. Particulars: both partners purified.
The target of data set [6] is T1, recombinant inter-α-inhibitor heavy …. Put plainly: SPR; 1,500 RU rHC1 proteins immobilised on a C1 chip by amide cross-linking; ligand as analyte; HEPES-buffered saline pH 7.5, 0.05% Tween 20, 2 mM Mg2+, 2 mM Mn2+; 50 μl/min; multicycle kinetics, 1:1 Langmuir. Particulars: both partners purified.
The target of data set [7] is B4. The data set is described as above. Particulars: both partners purified.
Data set [8] concerns the molecule itself. Description: AUC; equilibrium AUC; rHC1 at 4, 11 and 22 μM with 0.1, 0.5, 1 or 5 mM MgCl2; 20 °C; global fit to a monomer–dimer model; dimer to monomers.
Data set [9] deals with the molecule itself. Description: SAXS; rHC1 proteins at 1.25, 2.5 and 5.0 mg/ml in HEPES-buffered saline pH 7.5 with 5 mM MgCl2.

Where a chain is given by its changes, count along the chain named.

The term Kd denotes a measure of binding affinity in units of concentration. With B1, binding in the data set with vitronectin was characterised by a dissociation constant (Kd) of 0.097 nM.

For the molecule B2, the equilibrium dissociation constant (Kd) in data set [1] amounted to 15.7 nM; in data set [2], 16.3 nM; in data set [3], 14 nM.

For the molecule B3, the Kd in data set [4] came to 0.138 nM; in data set [5], 0.192 nM; in data set [6] it was 0.096 nM; in data set [7] it was 0.118 nM.

One may read the stoichiometry N as a count of units in the complex or per binding partner. Molecule B4 showed a Kd in data set [8] of 35300 nM. The “stoichiometry N” value in [9] amounted to 2.

As to B5, the Kd was determined as 12.9 nM in data set [6] and 8.8 nM in data set [7].

For the molecule B6, the dissociation constant Kd is 3.1 nM in [6] and 9.9 nM in data set [7].
